Results reported in US20200199241A1 (Chugai, published 2020).
Where a chain is given by its changes, count along the chain named. Names and notes keep the numbering of the source.

T1: FcγRIIb (human, UniProt P31994 43-217, limits assumed)
T1 construct: also called FcgRIIb; FcγIIB
T1 sequence: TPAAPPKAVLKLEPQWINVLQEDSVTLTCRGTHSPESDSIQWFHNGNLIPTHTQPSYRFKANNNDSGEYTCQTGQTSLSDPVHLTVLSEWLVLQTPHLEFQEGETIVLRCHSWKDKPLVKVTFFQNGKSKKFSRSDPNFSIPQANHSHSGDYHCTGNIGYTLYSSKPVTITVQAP

T2: FcγRIIa type R (human, UniProt P12318 36-217)
T2 construct: also called FcγRIIaR; FcgRIIaR
T2 chain: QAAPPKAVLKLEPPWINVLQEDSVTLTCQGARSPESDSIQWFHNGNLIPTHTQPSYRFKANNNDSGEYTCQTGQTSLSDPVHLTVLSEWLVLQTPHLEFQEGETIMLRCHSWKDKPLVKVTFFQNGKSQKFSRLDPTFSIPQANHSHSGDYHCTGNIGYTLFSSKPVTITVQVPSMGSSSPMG

T3: FcγRIIa type H (human, UniProt P12318 36-217)
T3 construct: also called FcγRIIaH; FcγRIIH
T3 sequence: T2 chain with R133H

T4: human FcγRIIb (human, UniProt P31994 43-217, limits assumed)
T4 construct: also called FcγIIB
T4 sequence: T1 sequence

T5: human FcγRIIa type R (human, UniProt P12318 36-217)
T5 construct: also called FcγRIIaR; FcγRIIa(R)
T5 chain: T2 chain

B1: IL6R-2B172/IL6R-L (antibody, human IgG1)
heavy: QVQLQESGPGLVKPSETLSLTCAVSGHSISHDHAWSWVRQPPGEGLEWIGFISYSGITNYNPSLQGRVTISRDNSKNTLYLQMNSLRAEDTAVYYCARSLARTTAMDYWGEGTLVTVSSASTKGPSVFPLAPSSKSTSGGTAALGCLVKDYFPEPVTVSWNSGALTSGVHTFPAVLQSSGLYSLSSVVTVPSSSLGTQTYICNVNHKPSNTKVDKKVEPKSCDKTHTCPPCPAPELLGGDSVFLFPPKPKDTLMISRTPEVTCVVVDVSHEDPEVKFNWYVDGVEVHNAKTKPREEQYNSTYRVVSVLTVLHQDWLNGKEYKCKMSNKALPAPIEKTISKAKGQPREPQVYTLPPSRDELTKNQVSLTCLVKGFYPSDIAVEWESNGQPENNYKTTPPVLDSDGSFFLYSKLTVDKSRWQQGNVFSCSVMHEALHNHYTQESLSLSP
light: DIQMTQSPSSLSASVGDRVTITCRASQDISSYLNWYQQKPGKAPKLLIYYTSRLHSGVPSRFSGSGSGTDFTFTISSLQPEDIATYYCQQGNTLPYTFGQGTKVEIK
notes: IgG1; Fc variant of IL6R-B3; copies: 2 + 2
B2: IL6R-2B171/IL6R-L (antibody, human IgG1)
heavy: B1 heavy with M325L
light: B1 light
notes: as for B1
B3: IL6R-PD042/IL6R-L (antibody, human IgG1)
heavy: B1 heavy with L236W, M254Y, M325V, N436Y, E441K
light: B1 light
notes: Alteration introduced into IL6R-F11; also called P238D/L234W; L234W/P238D
B4: IL6R-PD094/IL6R-L (antibody, human IgG1)
heavy: B1 heavy with G239W, M254Y, M325V, N436Y, E441K
light: B1 light
notes: Alteration introduced into IL6R-F11; also called P238D/G237W; G237W/P238D
B5: IL6R-PD087/IL6R-L (antibody, human IgG1)
heavy: B1 heavy with G239M, M254Y, M325V, N436Y, E441K
light: B1 light
notes: Alteration introduced into IL6R-F11; also called P238D/G237M; G237M/P238D
B6: IL6R-PD082/IL6R-L (antibody, human IgG1)
heavy: B1 heavy with G239F, M254Y, M325V, N436Y, E441K
light: B1 light
notes: Alteration introduced into IL6R-F11; also called P238D/G237F; G237F/P238D
B7: IL6R-PD086/IL6R-L (antibody, human IgG1)
heavy: B1 heavy with G239L, M254Y, M325V, N436Y, E441K
light: B1 light
notes: Alteration introduced into IL6R-F11; also called P238D/G237L; G237L/P238D
B8: IL6R-PD081/IL6R-L (antibody, human IgG1)
heavy: B1 heavy with G239E, M254Y, M325V, N436Y, E441K
light: B1 light
notes: Alteration introduced into IL6R-F11; also called P238D/G237E; G237E/P238D
B9: IL6R-PD095/IL6R-L (antibody, human IgG1)
heavy: B1 heavy with G239Y, M254Y, M325V, N436Y, E441K
light: B1 light
notes: Alteration introduced into IL6R-F11; also called P238D/G237Y; G237Y/P238D
B10: IL6R-PD043/IL6R-L (antibody, human IgG1)
heavy: B1 heavy with L236Y, M254Y, M325V, N436Y, E441K
light: B1 light
notes: Alteration introduced into IL6R-F11; also called P238D/L234Y; L234Y/P238D
B11: IL6R-PD079/IL6R-L (antibody, human IgG1)
heavy: B1 heavy with G239A, M254Y, M325V, N436Y, E441K
light: B1 light
notes: Alteration introduced into IL6R-F11; also called P238D/G237A; G237A/P238D
B12: IL6R-PD097/IL6R-L (antibody, human IgG1)
heavy: B1 heavy with S241D, M254Y, M325V, N436Y, E441K
light: B1 light
notes: Alteration introduced into IL6R-F11; also called P238D/S239D

These binders were tested against T6, FcγRIIIa type V (human, UniProt P08637 17-208, limits assumed) (assay: SPR (Biacore), FcγR over captured antibody).
T6 construct: also called FcγRIIIaV; FcgRIIIaV
T6 sequence (P08637 other isoform, or with tags, fused parts or gaps limits assumed): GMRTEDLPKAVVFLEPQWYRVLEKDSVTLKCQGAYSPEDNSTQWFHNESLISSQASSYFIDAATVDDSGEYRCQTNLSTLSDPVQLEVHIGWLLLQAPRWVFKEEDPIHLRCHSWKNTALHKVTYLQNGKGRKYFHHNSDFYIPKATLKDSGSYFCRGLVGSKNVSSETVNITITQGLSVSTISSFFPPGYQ

Row | Binder | Kd
1 | B1 | 48000 nM
2 | B2 | 57000 nM

The binders below were run against T1, FcγRIIb (assay: SPR (Biacore), FcγR over captured antibody).

Row | Binder | Kd
3 | B1 | 770 nM
4 | B2 | 1100 nM

Molecular target: T2, FcγRIIa type R
Assay: SPR (Biacore), FcγR over captured antibody

Row | Binder | Kd
5 | B1 | 6100 nM
6 | B2 | 16000 nM

The binders below were run against T7, FcγRIa (human, UniProt P12314 16-292, limits assumed) (assay: SPR (Biacore), FcγR over captured antibody).
T7 construct: also called FcgRIa; CD64
T7 sequence (P12314 16-292 limits assumed): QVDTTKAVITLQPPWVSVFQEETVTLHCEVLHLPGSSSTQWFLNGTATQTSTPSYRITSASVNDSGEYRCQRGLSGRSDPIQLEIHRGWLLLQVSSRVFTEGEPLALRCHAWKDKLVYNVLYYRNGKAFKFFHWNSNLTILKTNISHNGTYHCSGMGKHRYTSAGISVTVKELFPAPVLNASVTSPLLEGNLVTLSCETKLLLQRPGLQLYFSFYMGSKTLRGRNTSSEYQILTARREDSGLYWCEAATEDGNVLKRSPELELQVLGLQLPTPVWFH

Row | Binder | Kd
7 | B1 | 3 nM
8 | B2 | 9.1 nM

Each binder was assayed against T3, FcγRIIa type H (assay: SPR (Biacore), FcγR over captured antibody).

Row | Binder | Kd
9 | B1 | 21000 nM
10 | B2 | 34000 nM

The binders below were run against T1, FcγRIIb (assay: SPR (Biacore); KD for FcγRIIaR divided by KD for FcγRIIb of the same antibody).

Row | Binder | KD(IIaR)/KD(IIb)
11 | B1 | 8
12 | B2 | 15

Each binder was assayed against T4, human FcγRIIb (assay: SPR (Biacore); ratio against parent IL6R-F11/IL6R-L).

Row | Binder | KD(IIb) of parent polypeptide/KD(IIb) of altered polypeptide
13 | B3 | 3.4
14 | B4 | 2.9
15 | B5 | 2.4
16 | B6 | 2
17 | B7 | 2.7
18 | B8 | 1.9
19 | B9 | 2.9
20 | B10 | 4.2
21 | B11 | 2.3
22 | B12 | 5

These binders were tested against T1, FcγRIIb (assay: SPR (Biacore); KD for FcγRIIaH divided by KD for FcγRIIb of the same antibody).
Source text: Furthermore, KD(IIaR)/KD(IIb) and KD(IIaH)/KD(IIb) in the table respectively represent the value obtained by dividing the KD value of each variant for FcγRIIaR by the KD value of each variant for FcγRIIb, and the value obtained by dividing the KD value of each variant for FcγRIIaH by the KD value of each variant for FcγRIIb.

Row | Binder | KD(IIaH)/KD(IIb)
23 | B1 | 27.3
24 | B2 | 31.8

These binders were tested against T4, human FcγRIIb (assay: SPR (Biacore), antibody captured, FcγR as analyte).

Row | Binder | Kd
25 | B3 | 2000 nM
26 | B4 | 2300 nM
27 | B5 | 2900 nM
28 | B6 | 3400 nM
29 | B7 | 2600 nM
30 | B8 | 3600 nM
31 | B9 | 2300 nM
32 | B10 | 1600 nM
33 | B11 | 3000 nM
34 | B12 | 1400 nM

The binders below were run against T8, human FcγRIa (human, UniProt P12314 16-292, limits assumed) (assay: SPR (Biacore), antibody captured, FcγR as analyte).
T8 construct: also called CD64
T8 sequence (P12314 16-292 limits assumed): as above

Row | Binder | Kd
35 | B3 | 63 nM
36 | B4 | 36 nM
37 | B5 | 52 nM
38 | B6 | 52 nM
39 | B7 | 120 nM
40 | B8 | 340 nM
41 | B9 | 93 nM
42 | B10 | 75 nM
43 | B11 | 140 nM
44 | B12 | 4.9 nM

Molecular target: T5, human FcγRIIa type R
Assay: SPR (Biacore), antibody captured, FcγR as analyte

Row | Binder | Kd
45 | B3 | 16000 nM
46 | B4 | 7200 nM
47 | B5 | 22000 nM
48 | B6 | 14000 nM
49 | B7 | 18000 nM
50 | B8 | 38000 nM
51 | B9 | 7900 nM
52 | B10 | 26000 nM
53 | B11 | 32000 nM
54 | B12 | 3500 nM

The binders below were run against T1, FcγRIIb (assay: SPR (Biacore), KD of IL6R-B3/IL6R-L divided by KD of the variant).
Source text: Furthermore, KD(IIaR)/KD(IIb) and KD(IIaH)/KD(IIb) in the table respectively represent the value obtained by dividing the KD value of each variant for FcγRIIaR by the KD value of each variant for FcγRIIb, and the value obtained by dividing the KD value of each variant for FcγRIIaH by the KD value of each variant for FcγRIIb. KD(IIb) of the parent polypeptide/KD(IIb) of the altered polypeptide refers to the value obtained by dividing the KD value of the parent polypeptide for FcγRIIb by the KD value of each variant for FcγRIIb.

Row | Binder | KD(IIb) of the parent polypeptide/KD(IIb) of altered polypeptide
55 | B1 | 4 fold
56 | B2 | 2.9 fold

These binders were tested against T4, human FcγRIIb (assay: SPR (Biacore), binding amount relative to IL6R-F652/IL6R-L = 100).

Row | Binder | relative binding activity
57 | B3 | 106
58 | B4 | 122
59 | B5 | 109
60 | B6 | 108
61 | B7 | 112
62 | B8 | 101
63 | B9 | 124
64 | B10 | 112
65 | B11 | 101
66 | B12 | 139

Molecular target: T5, human FcγRIIa type R
Assay: as above

Row | Binder | relative binding activity
67 | B3 | 240
68 | B4 | 593
69 | B5 | 196
70 | B6 | 380
71 | B7 | 268
72 | B8 | 117
73 | B9 | 543
74 | B10 | 175
75 | B11 | 138
76 | B12 | 844

The binders below were run against T4, human FcγRIIb (assay: SPR (Biacore); KD for FcγRIIaH divided by KD for FcγRIIb of the same antibody).

Row | Binder | KD(IIaH)/KD(IIb)
77 | B3 | 9.5
78 | B4 | 5.2
79 | B5 | 7
80 | B6 | 4.7
81 | B7 | 7.1
82 | B8 | 7
83 | B9 | 6.4
84 | B10 | 14.4
85 | B11 | 7
86 | B12 | 14

These binders were tested against T4, human FcγRIIb (assay: SPR (Biacore); KD for FcγRIIaR divided by KD for FcγRIIb of the same antibody).

Row | Binder | KD(IIaR)/KD(IIb)
87 | B3 | 8.1
88 | B4 | 3.1
89 | B5 | 7.7
90 | B6 | 4.1
91 | B7 | 6.9
92 | B8 | 10.6
93 | B9 | 3.4
94 | B10 | 15.9
95 | B11 | 10.5
96 | B12 | 2.6
